The record followed here is publication PMC4824076, “Integrated microfluidic approach for quantitative high-throughput measurements of transcription factor binding affinities”.

One may read the Kd as the equilibrium constant for the complex coming apart. Low values mean tighter binding, high ones weaker binding.

The target of series [1] is c-Jun;c-Fos (;) (UniProt P05412+P01100). The experiment in a line: MITOMI (QPID). To be noted: QPID microfluidic MITOMI; 1 h incubation of in vitro expressed extract (about 25 ul, 50 ng protein) with spotted Cy5-dsDNA (0.0156-2 uM spotting dilutions, PEG …).
In series [2] the target is c-Jun (UniProt P05412). The experiment in a line: MITOMI (QPID). As to conditions: QPID microfluidic MITOMI; 1 h incubation of in vitro expressed extract (about 25 ul, 50 ng protein) with spotted Cy5-dsDNA (0.0156-2 uM spotting dilutions, PEG …).
The target in series [3] is c-Fos/c-Jun (Homo sapiens, UniProt P01100;P05412 full;full). The experiment in a line: MITOMI-type chip (QPID); rabbit reticulocyte lysate, 1 h; wash 50 mM HEPES; temperature not stated; DNA spotted at 0.0156-2 uM. To be noted: tags: c-Fos N-cMyc, C-His6; c-Jun HA and V5 at the termini (kept); copies: 1;1; label: Cy5 on the primer strand.
Series [4] has as its target c-Fos (Homo sapiens, UniProt P01100). The description is as above. As to conditions: tags: N-cMyc, C-His6 (kept); label: Cy5 on the primer strand.
The target in series [5] is T1, ATF1 (Homo sapiens, UniProt P18846).
T1 sequence: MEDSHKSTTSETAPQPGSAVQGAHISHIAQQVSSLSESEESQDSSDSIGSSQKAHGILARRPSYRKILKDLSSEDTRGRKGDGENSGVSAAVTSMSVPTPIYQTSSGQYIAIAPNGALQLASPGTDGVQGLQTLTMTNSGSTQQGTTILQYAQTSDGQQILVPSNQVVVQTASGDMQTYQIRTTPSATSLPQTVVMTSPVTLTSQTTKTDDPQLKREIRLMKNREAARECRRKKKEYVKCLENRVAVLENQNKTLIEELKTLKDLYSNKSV
The description is as above. As to conditions: tags: N-cMyc, C-His6 (kept); chain copies: 2; label: Cy5 on the primer strand.

Series [6] addresses c-Jun (Homo sapiens, UniProt P05412). The description is as above. To be noted: tags: N-cMyc, C-His6 (kept); chain copies: 2; label: Cy5 on the primer strand.

Sequence of c-Jun (UniProt P05412) (P05412 252-315): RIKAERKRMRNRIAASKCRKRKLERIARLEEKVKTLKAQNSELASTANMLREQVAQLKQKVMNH
Sequence of c-Jun;c-Fos (;) (P05412 252-315, chain 1 of 2): as the sequence (P05412 252-315) above
Sequence of c-Jun;c-Fos (;) (P01100 137-200, chain 2 of 2): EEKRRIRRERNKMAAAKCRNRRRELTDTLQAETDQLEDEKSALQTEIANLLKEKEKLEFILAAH
Sequence of c-Jun (Homo sapiens, UniProt P05412) (P05412 whole entry): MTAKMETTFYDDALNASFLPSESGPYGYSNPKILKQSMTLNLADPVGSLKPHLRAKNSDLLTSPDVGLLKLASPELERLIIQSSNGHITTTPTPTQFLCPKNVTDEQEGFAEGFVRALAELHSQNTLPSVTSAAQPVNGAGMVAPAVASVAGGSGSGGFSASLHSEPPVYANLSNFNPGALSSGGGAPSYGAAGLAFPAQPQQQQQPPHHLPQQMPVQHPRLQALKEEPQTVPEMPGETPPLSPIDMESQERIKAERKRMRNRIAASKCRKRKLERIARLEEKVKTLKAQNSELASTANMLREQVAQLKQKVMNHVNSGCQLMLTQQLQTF
Sequence of c-Fos (P01100 whole entry): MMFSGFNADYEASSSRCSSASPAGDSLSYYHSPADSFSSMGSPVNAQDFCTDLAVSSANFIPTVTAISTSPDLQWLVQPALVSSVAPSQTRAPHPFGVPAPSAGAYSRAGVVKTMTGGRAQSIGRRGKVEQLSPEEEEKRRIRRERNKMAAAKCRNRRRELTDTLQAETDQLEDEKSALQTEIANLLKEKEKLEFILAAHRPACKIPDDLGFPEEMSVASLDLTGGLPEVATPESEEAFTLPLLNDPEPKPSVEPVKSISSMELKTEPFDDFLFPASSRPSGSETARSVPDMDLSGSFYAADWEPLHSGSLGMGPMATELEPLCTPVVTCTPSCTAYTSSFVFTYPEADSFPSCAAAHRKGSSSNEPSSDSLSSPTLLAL
Sequence of c-Fos/c-Jun (P01100 whole entry, chain 1 of 2): as the sequence (P01100 whole entry) above
Sequence of c-Fos/c-Jun (P05412 whole entry, chain 2 of 2): as the sequence (P05412 whole entry) above

Take “GGCCACTACCGCTTCCTCCACATGAGTCATGGTTTTCTCCACCAAGGAAGT (double strand) [oligo 3 (AP-1)]”: the values for the Kd in series [1] and in series [2] were 0.27 µM and 2.5 µM, respectively.
For “GGCCACTACCGCTTCCTCCACATGACGTCATGGTTTTCTCCACCAAGGAAGT (double strand) [oligo 1 (CRE)]”, in that order: 0.19 µM and 1.3 µM.
The molecule “TTATGACCTGGGAGTGAGTCAATGGAATCCACAGA (double strand) [oligo 4 (AP-1)]” showed a Kd in series [1] of 0.5 µM. This lies in the sub-micromolar range.
With “TTATGACCTGGGAGTGACGTCATGGAATCCACAGA (double strand) [oligo 2 (CRE)]”, the Kd in series [1] came out at 0.15 µM; in series [2], 2.4 µM.
Turning to “GGCCACTACCGCTTCCTCCACATGGCGTCATGGTTTTCTCCACCAAGGAAGT (double strand) [oligo 5 (CRE half-site)]”, in series [1], the Kd was determined as 3.5 µM.
Molecule “TTATCCACTTGCGCTCGCCGAGTGGCGTCACCAGCGGTACTGTAATGACGAT (double strand) [oligo 6 (CRE half-site)]” yielded a Kd in series [1] of 4 µM.

B1: oligo 3 (AP-1) (dsDNA)
DNA 1: GGCCACTACCGCTTCCTCCACATGAGTCATGGTTTTCTCCACCAAGGAAGT
DNA 2: ACTTCCTTGGTGGAGAAAACCATGACTCATGTGGAGGAAGCGGTAGTGGCC
Turning to B1, the Kd in series [3] was 0.27 µM; in series [4], greater than 2 µM; in series [5] it was roughly 11 µM; in series [6] it was roughly 2.5 µM.

B2: oligo 1 (CRE) (dsDNA)
DNA 1: GGCCACTACCGCTTCCTCCACATGACGTCATGGTTTTCTCCACCAAGGAAGT
DNA 2: ACTTCCTTGGTGGAGAAAACCATGACGTCATGTGGAGGAAGCGGTAGTGGCC
On to B2, for which the Kd in series [3] was 0.19 µM; in series [4], greater than 2 µM; in series [5], 0.04 µM; in series [6] it was 1.3 µM.

B3: oligo 5 (HS) (dsDNA)
DNA 1: GGCCACTACCGCTTCCTCCACATGGCGTCATGGTTTTCTCCACCAAGGAAGT
DNA 2: ACTTCCTTGGTGGAGAAAACCATGACGCCATGTGGAGGAAGCGGTAGTGGCC
B3: the Kd was roughly 3.5 µM in series [3], greater than 2 µM in series [4] and 0.17 µM in series [5].

B4: oligo 2 (CRE) (dsDNA)
DNA 1: TTATGACCTGGGAGTGACGTCATGGAATCCACAGA
DNA 2: TCTGTGGATTCCATGACGTCACTCCCAGGTCATAA
With B4, the Kd in series [3] was 0.15 µM; in series [4], greater than 2 µM; in series [5], 0.03 µM; in series [6] it was roughly 2.4 µM.

B5: oligo 4 (AP-1) (dsDNA)
DNA 1: TTATGACCTGGGAGTGAGTCAATGGAATCCACAGA
DNA 2: TCTGTGGATTCCATTGACTCACTCCCAGGTCATAA
For B5, the values for the Kd in series [3], in series [4] and in series [5] were 0.5 µM, greater than 2 µM and roughly 17 µM, respectively.

B6: oligo 7 (Mutant) (dsDNA)
DNA 1: GGCCACTACCGCTTCCTCCACAAATAAAATTGGTTTTCTCCACCAAGGAAGT
DNA 2: ACTTCCTTGGTGGAGAAAACCAATTTTATTTGTGGAGGAAGCGGTAGTGGCC
Turning to B6, the Kd in series [4] and in series [5] was greater than 2 µM throughout.

B7: oligo 6 (HS) (dsDNA)
DNA 1: TTATCCACTTGCGCTCGCCGAGTGGCGTCACCAGCGGTACTGTAATGACGAT
DNA 2: ATCGTCATTACAGTACCGCTGGTGACGCCACTCGGCGAGCGCAAGTGGATAA
As to B7, the Kd was roughly 4 µM in series [3], greater than 2 µM in series [4] and 0.04 µM in series [5].
